These results are taken from patent publication US20190309034A1 (Boehringer Ingelheim, published 2019).

B1: 27I21-3C7 (antibody, V domains shown)
VH: QVQLQQSGPELVRPGTSVKISCKAPGYIFTSHWMQWVRQRPGQGLEWIGDIFPGSGTTDYNEKFKDKATVTVDRSSSSAYMQFNSLTSEDSAVYFCASGAFDYWGQGTTLTVSS
VL: DIQMTQSPSSLSASLGERVSLTCRASQDIGNRLNWLQQAPDGTIKRLIYATSSLDSGVPKRFSGSRSGSDYSLTISSLESEDFVDYYCLQYASYPFTFGTGTKLEIK
B2: 551H4D6 (antibody, V domains shown)
VH: EVQLQQSGAELVRPGASVELSCTASGFNIKNDYLHWVKQRPEQGLEWIGWIDSANDKTKYAPKFQDKATITADPSSNTAYLQLSSLTSEDTAVYYCTRVGVQDGYYVRDFDYWGQGTTLTVSS
VL: DIVLTQSPASLAVSLGQRATMSCRASESVDSYGNSFIHWYQQKPGQPPRLLIYRASNLNSGIPARFSGSGSRTDFTLTISSVEADDVATYYCHQNNEDPRTFGGGTKLEIK
B3: 319B8A12 (antibody, V domains shown)
VH: KVTLKESGPGILQPSQTLSLTCSFSGFSLRTFGMGVGWIRQPSGKGLEWLAHIWWNDEKYYNPDLKSRLTVSKDSSKNQVFLTIANVDTSDTAPYYCTRVGPSISTVAEGFPYWGQGTLVTVSA
VL: DIVMTQSQKFVSTRVGDRVSITCKASQNVGAAVVWYQQKSGQPPKLLIRSASNRYIGVPDRFTGSGSGTDFTLTVSDVQSGDLADYFCQQYSNYPLTFGAGTKLELTR
B4: 348A6C1 (antibody, V domains shown)
VH: B3 VH with K1Q, K5R, D64A, K77E, T83K, S90T, T98A, V100L, S105T
VL: B3 VL with V11M, R14T, V34A, S40P, G81V
B5: 332C1B12 (antibody, V domains shown)
VH: QVQLQQPGAELVKPGASVKLSCKASGYTFTNDNYWMNWMKQRPGRGLEWIGRIRPSDSETHYNQKFTNKATLTVDKSSSTAYIQLSSLTSVDSAVYYCARSWEDLLLRSMEDYFDYWGQGTTLTVSS
VL: DIVLTQSPASLPVSLGQRATISCRASKGVSTSSYTFIHWYQQKPGQPPKLLIKYASNLESGVPARFSGSGSGTDFTLNIHPVEEEDVATYYCQHSREFPRTFGGGTKLEIK
B6: 606H7F8 (antibody, V domains shown)
VH: VQLVESGGGLVKPGGSLKLSCAASGFTFSSYDMSWVRQTPEKRLEWVAAINSYGVNTYYPDTVKDRFTISRDNAKNTLYLQMSSLRSEDTALYYCARLLIGPYYYAMDYWGQGTSVTVSS
VL: DIQMTQSPASLSASVGETVTITCRASGNIHNYLAWYQQKQGKSPQLLVYNAKTLADGVPSRFSGSGSGTQFSLKINSLQPEDFGSYYCQHFWSTPYTFGGGTKLEIK
B7: 344B9D9 (antibody, V domains shown)
VH: EFQLQQSGPELGEPGASVKISCKASGFSFSDYNINWVKQSNGKSLEWIGKVHPKDGTATYNQKFQDKATLTLDQSSSTAYMQLSSLTSEDSAVYYCLPLYYDSLTKILFAYWGQGTLVTVSA
VL: B6 VL with N50S, K52I, G68E, S85I, S93N
B8: 320F9C5 (antibody, V domains shown)
VH: QVTLKESGPGILQSSQTLSLTCSFSGFSLRTFGMGVGWIRQPSGKGLEWLAHIWWNDDKSSHPALKSRLTISKDTSKNQVFLKIANVDTAETATYYCVRIGPSITTVAEGFAYWGQGTLVTVSA
VL: DIVMTQSQKFMSTTVGDRVSITCKASQNVGSVVAWYQQRPGQSPTLLIYSASNRYTGVPDRFTGSGSGTDFTLTISNMQSEDLADYFCQQYSSYPLTFGAGTKLELK
B9: 363D4A10 (antibody, V domains shown)
VH: B8 VH with R30K, S60F, S61Y
VL: DIVMTQSQKFMSTTVGDRVTITCKASQNVGSAVVWYQQKPGQSPILLIFSASNRYTGVPDRITGSGSGAEFTLTISSVQSEDLAEYFCQQYSSYPLTFGAGTKLELK
B10: 352G11A10 (antibody, V domains shown)
VH: QVQLQQSGPELVKPGGSVRISCKASGYSLISYYIHWVKQRPGQGLEWIGLTFPGSGNSKFIEKFKGKATLTADTSSNTAYIQLSSLTSEDSAVYYCTRGDFGNYLAYWYFDVWGTGTTVTVSS
VL: DIKMTQSPSSIYASLGERVTITCKASQDIHSYLSWFQQKPGKSPKTLMYRTNRLVDGVPSRFSGSGSGQDYSLTIRSLEYEDMGNYYCLQYDEFPYTFGGGAKLEVK
B11: 1070A6B7 (antibody, V domains shown)
VH: QVPLQQPGAEMVRPGASMRLSCKASGYTFPGYWMHWVKQRPRQGLEWIAKIDPSDSETHYNQNFKDKATLTVDKYSNTVYMQLNSLTSEDSAVYYCANEGWDSLTKVWFGWWGQGTLVTVSA
VL: DVVMTQTPLSLPVSLGDQASISCRCSQSLVHSNGNTYLHWYLQKPGQSPKLLIYKVSDRFSGVPDRFSGSGSGTDFTLRISRVEADDLGVYFCSQSTHVPLTFGAGTKLELK
B12: 1002E8A6 (antibody, V domains shown)
VH: EVQLQQSGPELVKPGASVKMSCKASGYTITSYVMHWVKQKPGQGLEWIGYINPNNDGTKYNEKFKGKATLTSDKSSNTAYMELSSLTSEDSAVYYCARGDYSNYFYWYFDVWGAGTTVTVSS
VL: DIKMTQSPSSMYASLGERVTITCKASQDINSYLTWFQQKPGKSPETLIYRANRLVSGVPSRFSGSGSGQDYSLTISSLEYEDMGIYSCLQYDEFPYTFGGGTKLEIK
B13: 560H2A7 (antibody, V domains shown)
VH: EVKLVESGGGLVQPGGSLSLSCAGSGFTFSDYYMSWVRQPPGKALEWLALIRNKAPGYTTEYSASVKGRFTISRDNSQSILYLQMNALRPEDSATYYCARVLRRADCLDYWGQGTALTVSS
VL: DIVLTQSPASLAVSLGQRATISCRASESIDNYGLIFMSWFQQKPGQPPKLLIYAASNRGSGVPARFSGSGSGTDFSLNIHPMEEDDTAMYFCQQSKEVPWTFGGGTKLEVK
B14: 317H2A6 (antibody, V domains shown)
VH: QVTLKESGPGILQPSQTLSLTCSFSGFSLRTFGMGVGWIRQPSGKGLEWLAHIWWNGDKYYDPALKSRLTISKDTSENRVFLNIANVDTTDTAPYYCVRIGPSITTVAEGFAYWGQGTLVTVSA
VL: DIVMTQSQKFLSTTIGDRVSITCKASQNVGSAVVWYQQKPGQPPKLLITSASNRYSGVPDRFTGSGSGTDFTLTVSNVQSVDLADYFCQQYSNYPLTFGAGTKLELK
B15: 323E9D1 (antibody, V domains shown)
VH: B3 VH with K1Q, L29M, V107I
VL: B14 VL with L11V, T14R, I15V, S31A, P40S, T49R, S56I, N77D, V81G, K107T

Where a chain is given by its changes, count along the chain named.

The first assay concerns the target Recombinant soluble trimeric human BAFF (furin-cleaved human BAFF 134-285) (human, UniProt Q9Y275 134-285). Nature of the assay: cell-based or functional assay.
Take B1: the “Soluble trimeric huBAFF (50 pM) Neutralization IC50” value came to 55 pM and the “Soluble trimeric huBAFF (50 pM) Neutralization IC90” value is 326 pM.

With B2, the “Soluble trimeric huBAFF (50 pM) Neutralization IC50” value is 110 pM and the “Soluble trimeric huBAFF (50 pM) Neutralization IC90” value is 257 pM.

Take B3: the “Soluble trimeric huBAFF (50 pM) Neutralization IC50” value came to 91 pM and the “Soluble trimeric huBAFF (50 pM) Neutralization IC90” value was found to be 331 pM.

Take B4: the “Soluble trimeric huBAFF (50 pM) Neutralization IC50” value was 110 pM and the “Soluble trimeric huBAFF (50 pM) Neutralization IC90” value worked out at 329 pM.

As to B5, the “Soluble trimeric huBAFF (50 pM) Neutralization IC50” value worked out at 99 pM and the “Soluble trimeric huBAFF (50 pM) Neutralization IC90” value worked out at 457 pM.

In the case of B6, the “Soluble trimeric huBAFF (50 pM) Neutralization IC50” value amounted to 29 pM and the “Soluble trimeric huBAFF (50 pM) Neutralization IC90” value is 378 pM.

Take B7: the “Soluble trimeric huBAFF (50 pM) Neutralization IC50” value is 102 pM and the “Soluble trimeric huBAFF (50 pM) Neutralization IC90” value came out at 352 pM.

Consider B8, for which the “Soluble trimeric huBAFF (50 pM) Neutralization IC50” value worked out at 110 pM and the “Soluble trimeric huBAFF (50 pM) Neutralization IC90” value came out at 3110 pM.

As to B9, the “Soluble trimeric huBAFF (50 pM) Neutralization IC50” value is 21 pM and the “Soluble trimeric huBAFF (50 pM) Neutralization IC90” value worked out at 473 pM.

With B10, the “Soluble trimeric huBAFF (50 pM) Neutralization IC50” value turned out to be 99 pM and the “Soluble trimeric huBAFF (50 pM) Neutralization IC90” value was found to be 444 pM.

For B11, the “Soluble trimeric huBAFF (50 pM) Neutralization IC50” value turned out to be 43 pM and the “Soluble trimeric huBAFF (50 pM) Neutralization IC90” value was found to be 677 pM.

Turning to B12, the “Soluble trimeric huBAFF (50 pM) Neutralization IC50” value was 107 pM and the “Soluble trimeric huBAFF (50 pM) Neutralization IC90” value is 824 pM.

With B13, the “Soluble trimeric huBAFF (50 pM) Neutralization IC50” value came out at 35 pM and the “Soluble trimeric huBAFF (50 pM) Neutralization IC90” value came to 324 pM.

Turning to B14, the “Soluble trimeric huBAFF (50 pM) Neutralization IC50” value came to 97 pM and the “Soluble trimeric huBAFF (50 pM) Neutralization IC90” value worked out at 327 pM.

In the case of B15, the “Soluble trimeric huBAFF (50 pM) Neutralization IC50” value amounted to 148 pM and the “Soluble trimeric huBAFF (50 pM) Neutralization IC90” value is 312 pM.

For the next assay, the target named is Recombinant soluble 60-mer human BAFF (His-HuBAFF 134-285) (human, UniProt Q9Y275 134-285). Nature of the assay: cell-based or functional assay.
For the molecule B1, the “Soluble 60-mer huBAFF (4 pM) Neutralization IC50” value was determined as 11 pM and the “Soluble 60-mer huBAFF (4 pM) Neutralization IC90” value came out at 33 pM.

Regarding B2, the “Soluble 60-mer huBAFF (4 pM) Neutralization IC50” value was found to be 234 pM and the “Soluble 60-mer huBAFF (4 pM) Neutralization IC90” value is 1980 pM.

Take B3: the “Soluble 60-mer huBAFF (4 pM) Neutralization IC50” value is 8 pM and the “Soluble 60-mer huBAFF (4 pM) Neutralization IC90” value stood at 24 pM.

Consider B4, for which the “Soluble 60-mer huBAFF (4 pM) Neutralization IC50” value came to 9 pM and the “Soluble 60-mer huBAFF (4 pM) Neutralization IC90” value was 29 pM.

In the case of B5, the “Soluble 60-mer huBAFF (4 pM) Neutralization IC50” value stood at 12 pM and the “Soluble 60-mer huBAFF (4 pM) Neutralization IC90” value was determined as 40 pM.

As for B6, the “Soluble 60-mer huBAFF (4 pM) Neutralization IC50” value came out at 12 pM and the “Soluble 60-mer huBAFF (4 pM) Neutralization IC90” value is 44 pM.

Turning to B7, the “Soluble 60-mer huBAFF (4 pM) Neutralization IC50” value came out at 11 pM and the “Soluble 60-mer huBAFF (4 pM) Neutralization IC90” value was determined as 32 pM.

Regarding B8, the “Soluble 60-mer huBAFF (4 pM) Neutralization IC50” value was 10 pM and the “Soluble 60-mer huBAFF (4 pM) Neutralization IC90” value was 24 pM.

Take B9: the “Soluble 60-mer huBAFF (4 pM) Neutralization IC50” value worked out at 9 pM and the “Soluble 60-mer huBAFF (4 pM) Neutralization IC90” value was found to be 23 pM.

Consider B10, for which the “Soluble 60-mer huBAFF (4 pM) Neutralization IC50” value came out at 21 pM and the “Soluble 60-mer huBAFF (4 pM) Neutralization IC90” value was determined as 90 pM.

Consider B11, for which the “Soluble 60-mer huBAFF (4 pM) Neutralization IC50” value was 20 pM and the “Soluble 60-mer huBAFF (4 pM) Neutralization IC90” value is 56 pM.

For B12, the “Soluble 60-mer huBAFF (4 pM) Neutralization IC50” value turned out to be 29 pM and the “Soluble 60-mer huBAFF (4 pM) Neutralization IC90” value was 79 pM.

Take B13: the “Soluble 60-mer huBAFF (4 pM) Neutralization IC50” value is 13 pM and the “Soluble 60-mer huBAFF (4 pM) Neutralization IC90” value was found to be 30 pM.

On to B14, for which the “Soluble 60-mer huBAFF (4 pM) Neutralization IC50” value is 4 pM and the “Soluble 60-mer huBAFF (4 pM) Neutralization IC90” value came out at 13 pM.

On to B15, for which the “Soluble 60-mer huBAFF (4 pM) Neutralization IC50” value is 6 pM and the “Soluble 60-mer huBAFF (4 pM) Neutralization IC90” value was 23 pM.

The target of a further assay is Human membrane-bound BAFF (mbBAFF) (human, UniProt Q9Y275 1-285). Nature of the assay: cell-based or functional assay.
B11: the “Potent mbBAFF Neutralization IC50” value stood at 0.147 nM and the “Potent mbBAFF Neutralization IC90” value came to 1.06 nM.

In the case of B12, the “Potent mbBAFF Neutralization IC50” value turned out to be 0.141 nM and the “Potent mbBAFF Neutralization IC90” value is 2.09 nM.
